Measurements from publication PMC8121366, “Crystal and solution structures reveal oligomerization of individual capsid homology domains of Drosophila Arc” (PLoS ONE, 2021).
Blank lines part the entries; values can stand above or below the binder they belong to.

Experiments:
[1] = target: the molecule itself; test: SEC-MALS + other: SAXS; SEC-MALS on Superdex S200 Increase 10/300 in TBS (20 mM Tris-HCl pH 7.4, 150 mM NaCl); SEC-SAXS on Superdex S200 Increase 3.2 in TBS, injected at 5 mg/ml, +10°C
Drosophila Arc1 N-lobe = target: T1, Drosophila Arc1 N-lobe (Drosophila); test: as above; conditions: both partners purified
T1 chain: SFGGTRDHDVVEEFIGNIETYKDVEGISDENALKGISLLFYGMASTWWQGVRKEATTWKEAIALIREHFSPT

B1: Drosophila Arc2 C-lobe (domain or fragment)
chain: KPSYQIYMEIFETKQSYDEVIDSFICKQRALLAKLPEGRHDEETELDFIYGLMQPKYRESIPRHEVKTFRELLDRGRTVERTRH
notes: Arc2 (dArc2) of Drosophila, isolated C-lobe; monomeric mass 10 kDa; Dimer in the crystal and in solution; also called dArc2-CL; source: E. coli BL21(DE3), purified (Ni-NTA, TEV cleavage, second Ni-NTA, amylose resin, Superdex S200); not shown: His tag, N-terminal, cleaved; MBP, N-terminal, cleaved
stoichiometry N [1]: 2

B2: Drosophila Arc2 N-lobe (domain or fragment)
chain: RFSGQRDHDAVDEFINAVETYKEVEGISDKDALKGLPLLFKSIAVVWWKGVRRDAKTWSDALQLLRDHFSPT
notes: monomeric mass 8.4 kDa; Tetramer in solution (SEC-MALS, SAXS); domain-swapped dimer in the crystal; also called dArc2-NL; source: E. coli BL21(DE3), purified (Ni-NTA, TEV cleavage, second Ni-NTA, Superdex S200); not shown: His tag, N-terminal, cleaved; MBP, N-terminal, cleaved
stoichiometry N [1]: 4

stoichiometry N (Drosophila Arc1 N-lobe): 2
B3: Drosophila Arc1 N-lobe (domain or fragment)
chain: T1 chain
modifications: limits inferred from the homologous dArc2-NL construct (6SIB, 37-109), the 8.2 kDa monomer mass and the dArc1-CL start at 123 (6SID); start uncertain by about 1 residue; dimer in solution / limits …

B4: Drosophila Arc1 C-lobe (domain or fragment)
chain: KPAYQIYMEFFQNKQDDHDPIDTFVIQKRALLAQLPSGRHDEETELDLLFGLLNIKYRKHISRHSVHTFKDLLEQGRIIEHNNQED
notes: Arc1 (dArc1) of Drosophila, isolated C-lobe; monomeric mass 11 kDa; Dimer in the crystal and in solution; also called dArc1-CL; source: E. coli BL21(DE3), purified (Ni-NTA, TEV cleavage, second Ni-NTA, amylose resin, Superdex S200); not shown: His tag, N-terminal, cleaved; MBP, N-terminal, cleaved
stoichiometry N [1]: 2
